B1: Azoarcus group I ribozyme (parent)
chain: GUGCCUUGCGCCGGGAAACCACGCAAGGGAUGGUGUCAAAUUCGGCGAAACCUAAGCGCCCGCCCGGGCGUAUGGCAACGCCGAGCCAAGCUUCGGCGCCUGCGCCGAUGAAGGUGUAGAGACUAGACGGCACCCACCUAAGGCAAACGCUAUGGUGAAGGCAUAGUCCAGGGAGUGGCGAAAGUCACACAAACCGG

In this data set the parent is B1. In words: reverse-splicing fitness (ratio to wild type); higher = more active; in vitro selection; Mg2+ level not given. The method in brief:
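An in vitro group I ribozyme library with randomized positions was T7-transcribed and gel-purified. In triplicate, 10 pmol RNA in EPPS pH 7.5 was reacted with 50 pmoles of a 30-nt RNA substrate for 1 h at 37 °C across several added MgCl2 levels (1–48 mM), then stopped with EDTA. Products were reverse transcribed from a substrate-complementary primer, PCR-amplified and sequenced (HiSeq 4000). Fitness is a variant's read proportion after selection over that before, normalised to wild type.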
Turning to C82U A111G C150G C169G U176A, the reverse-splicing fitness was 0.0075.

As for C82G C150U, the reverse-splicing fitness is 0.252. The same measure for C82U A111U C169G U176A: 0.0162; for C82G A111U A120G C150A C169G U176A: 0.0227; for C82U A111U A120U A145G C150A C169G U176G: 0.00241. In the case of C82U A120C A145C C150G C169A U176C it was 0.0042. In the case of C82A A111C C150A C169G it was 0.00835; in that of C82G A120G C150G U176C, 0.0105; in that of C82U A111G A120G A145U C169U U176A, 0.0208. C82U A111C A120G A145U C150A C169U U176C: the reverse-splicing fitness is 0.0106.

In the case of C82G A111U A145G C169G U176A, the reverse-splicing fitness amounted to 0.0187.

Regarding C82A A111C A120U A145U U176C, the reverse-splicing fitness was found to be 0.0103. In the case of C82U A111U A120U C150U C169G it was 0.00465. Consider C82U A111U A120C A145G C169U, for which the reverse-splicing fitness turned out to be 0.0112.

C82U A111G A145U C150G C169G: the reverse-splicing fitness was 0.00642. The same measure for C82A A145G C150A U176C: 0.0855; for C82U A120U A145U C150G C169U: 0.00244; for C82A A111G A145U U176G: 0.0692. The same measure for A120C A145U C150U: 0.744; for C82A A111G A145U C150G U176C: 0.0181; for C82A A111U A120C C169A U176A: 0.0222. The same measure for C82U A111C A120U A145G C150U C169G U176A: 0.00475. As for A120C A145U C169U U176G, the reverse-splicing fitness was 0.0184. The same measure for C82A A111U A120U A145U C169U U176A: 0.00289; for A111C A120U A145G C150A: 0.099. The same measure for C82U A111C A120U C150U U176G: 0.00332. In the case of C82U A111C A120G A145U C150A C169U it was 0.006; in that of C82U A111C A120G A145U C150A C169A, 0.00826. As to C82A A111G A120C C150A C169G U176A, the reverse-splicing fitness came to 0.0219. Take C82G A111U A120G C150U C169U U176G: the reverse-splicing fitness came to 0.00743. Consider A120G C150G U176A, for which the reverse-splicing fitness was 0.0287. For the variant C82A A111G A120C A145G C150U C169U, the reverse-splicing fitness is 0.0147. The same measure for C82G A111C A145G C150U C169U U176A: 0.0129. In the case of C82A A145C C150A C169G U176C it was 0.0122; in that of C82U A111G, 0.477. The same measure for C82G A111U A120U A145G C150U C169A U176A: 0.0082; for C82U A111U A120U A145G C150A C169A U176G: 0.00245; for C82U A120G A145U C150A C169U: 0.0072. Regarding A120C C150A C169G U176C, the reverse-splicing fitness was found to be 0.0156. For A111C A120C A145C C150U C169G U176G, the reverse-splicing fitness worked out at 0.00592. For the variant C82A A120C A145C C150G C169A, the reverse-splicing fitness came to 0.00891. In the case of C82U A111G A120U A145U C150G C169A U176G it was 0.00207; in that of C82U A111G A120U A145U C169G U176G, 0.00135.

On to C82G A120C A145G C150G, for which the reverse-splicing fitness was determined as 0.0242. As to A120G A145C C169A U176G, the reverse-splicing fitness came out at 0.0075. In the case of C82G A111U A145C C150G C169U U176G it was 0.00634; in that of C82G A111C A120U A145G U176C, 0.0203.

For the variant A111U A120G C150G C169A U176C, the reverse-splicing fitness turned out to be 0.00933. For C82A A120C A145G C150A C169U U176C, the reverse-splicing fitness stood at 0.0163. Take A111G A120G A145U C150A C169A U176A: the reverse-splicing fitness was 0.0157. The same measure for C82A A111C A120G A145U C169A U176C: 0.0104; for C82A A145C C150G C169U U176A: 0.00823.

Take A111G A120G A145C C169G U176A: the reverse-splicing fitness worked out at 0.079. In the case of A111C A120U A145C C150U C169U U176C it was 0.00414; in that of A111U A120C A145U C169A, 0.0103.

Regarding C82A A111C A120U A145U C150U C169U U176C, the reverse-splicing fitness came to 0.00348. In the case of C82A A111G A120G A145U C169U U176C it was 0.0158; in that of C82U A120C A145U C150A C169U U176C, 0.0164; in that of C82U A111C A120G A145U C169A, 0.00767.

As for C82A A111U A120C A145U C169A U176G, the reverse-splicing fitness is 0.00804.

Take C82U A111C A120C A145U C150U C169A: the reverse-splicing fitness is 0.00892. As for C82U A111C A120U A145U C150G U176A, the reverse-splicing fitness stood at 0.00354. With C82A A111C A120C A145C C150U U176C, the reverse-splicing fitness came to 0.0125. Take C82G A111U A120U C169U U176A: the reverse-splicing fitness came to 0.00485. Consider A111C A120G C150U C169A U176C, for which the reverse-splicing fitness was found to be 0.0197. The same measure for C82G A120G C150U U176A: 0.0117. Take C82U A111C A120C A145U C150U C169A U176C: the reverse-splicing fitness stood at 0.00966. In the case of C82G A145C C150A C169A, the reverse-splicing fitness is 0.00782. As for C82U A111U A120G C169U U176A, the reverse-splicing fitness turned out to be 0.0215.

As to A111U A120U A145U C169U, the reverse-splicing fitness was found to be 0.0617.

On to A111G A120G A145C C150U C169G, for which the reverse-splicing fitness amounted to 0.088.

Take A111C A120U A145G C150A U176C: the reverse-splicing fitness was determined as 0.0554. With C82U A111U A145C C150U C169U U176C, the reverse-splicing fitness was determined as 0.0076. In the case of C150A C169U it was 0.061. Regarding C82G A120G A145U C150G, the reverse-splicing fitness stood at 0.00803. In the case of C82U A111G A145C C150G U176G it was 0.00329; in that of C82G A111C A120G A145U C150G U176G, 0.00375.

Take C82A A111U A120G A145C C150G C169U U176A: the reverse-splicing fitness amounted to 0.0132.

As for C82G A111G A120G A145C C150G C169U U176A, the reverse-splicing fitness turned out to be 0.0139.

On to A111G A120U A145U C150A U176A, for which the reverse-splicing fitness was 0.0447. In the case of C82A A111C A120C C150A C169G U176A it was 0.0168; in that of A111U A120U A145G C169G U176G, 0.00167; in that of C82A A111C A120G C150G U176A, 0.00868. On to C82A A111U A120U A145U C150U C169U U176C, for which the reverse-splicing fitness was found to be 0.00339.
